Where no end group is shown, it is not given here.
Target: Ribosomal protein eL5/uL18 (H. sapiens rpL5) (H. sapiens, UniProt P46777 1-297)
Assay: NMR titration; 15N-1H HSQC at 25 °C, 35 uM 15N WT N29+P1 or 80 uM KRK→AAA N29+P1 with unlabelled rpL5 at a 1:1 ratio, phosphate buffer pH 6.4 with 5% v/v glycerol; chemical shift perturbations and peak disappearance
Conditions: both partners purified

binding result: binds
B1: DCC C-tail N29+P1 protein (residues 1121-1167) (domain or fragment)
chain: CTRRSSAQQRKKRATHSAGKRKGSQKDLRPPDLWIHHEEMEMKNIEK
modifications: also: Cy5 label via maleimide (MST only), 15N-labelled (NMR only)
notes: Residues 1121-1122 were included to give a terminal cysteine for labelling; also called WT N29+P1; DCC N29-P1; source: E. coli LOBSTR-BL21(DE3), purified (Ni-NTA, Superdex 75)

Source: publication PMC12556795, “Intrinsically disordered cytoplasmic tail in netrin receptor DCC binds the large ribosomal subunit to inhibit translation” (The Journal of Biological Chemistry, 2025)
